These results are taken from paper PMC6921004, “Structural Characterization of Full-Length Human Dehydrodolichyl Diphosphate Synthase Using an Integrative Computational and Experimental Approach” (Biomolecules, 2019).

One may read the Km as the substrate concentration at which the rate is half of its maximum. What is called kcat is the number of substrate molecules converted per active site and unit of time at saturation. By stoichiometry N is commonly meant a count of units in the complex or per binding partner.

Substrate in series [1]: C=C(C)CCO[P@@](=O)(O)OP(=O)(O)O
The series is described as follows: purified protein. The settings on record: 10 μM FPP, 0.5 μM protein, labelled compound (^14C), Tris-HCl pH 7.5, 150 mM NaCl, 20 mM β-mercaptoethanol, 0.1% Triton X-100, 30 °C, homodimer without NgBR.

Substrate in series [2]: CC(C)=CCC/C(C)=C/CC/C(C)=C/CO[P@@](=O)(O)OP(=O)(O)O
Put plainly: purified protein. It counts as biochemical, Homo sapiens. The settings on record: 20 μM ^14C-IPP, 0.1 μM protein, Tris-HCl pH 7.5, 150 mM NaCl, 20 mM β-mercaptoethanol, 0.1% Triton X-100, 30 °C, homodimer without NgBR.

Series [3] deals with the molecule itself. Put plainly: SEC-MALS; Superdex-200 increase 10/300 GL; Tris-HCl pH 7.5, 150 mM NaCl, 20 mM beta-mercaptoethanol, 0.02% Triton X-100; sample 2 mg/mL, 50 uL. (In general: SEC sorts molecules by how far they enter the pores of the column.)

B1: human dehydrodolichyl diphosphate synthase (DHDDS), full-length homodimer (Homo sapiens) (protein)
chain: MSWIKEGELSLWERFCANIIKAGPMPKHIAFIMDGNRRYAKKCQVERQEGHSQGFNKLAETLRWCLNLGILEVTVYAFSIENFKRSKSEVDGLMDLARQKFSRLMEEKEKLQKHGVCIRVLGDLHLLPLDLQELIAQAVQATKNYNKCFLNVCFAYTSRHEISNAVREMAWGVEQGLLDPSDISESLLDKCLYTNRSPHPDILIRTSGEVRLSDFLLWQTSHSCLVFQPVLWPEYTFWNLFEAILQFQMNHSVLQKARDMYAEERKRQQLERDQATVTEQLLREGLQASGDAQLRRTRLHKLSARREERVQGFLQALELKRADWLARLGTASA
notes: full-length; expressed in E. coli T7 express from pET-32b as thioredoxin-6xHis fusion, tag and fusion removed by TEV protease; without NgBR
Regarding B1, in the series “purified protein [1]”, the Km worked out at 9.3 ± 2.8 µM and the kcat was determined as 0.0011 ± 0.0001 s⁻¹. Besides, in the series “purified protein [2]”, the Michaelis-Menten constant (Km) was found to be 0.45 ± 0.1 µM and the kcat stood at 0.0011 ± 0.0001 s⁻¹.

B2: Dehydrodolichyl diphosphate synthase (DHDDS), full-length human (enzyme, UniProt Q86SQ9 1-333, looked up)
chain: B1 chain
notes: Dehydrodolichyl diphosphate synthase (DHDDS), human, UniProt Q86SQ9, full length; synthesized gene cloned into pET-32b between NdeI and BamHI; Expressed as a TRX fusion with a 6xHis-tag and a TEV site; the tag and the fusion were removed by TEV protease; also called hDHDDS; human DHDDS; source: E. coli T7 express, purified (TALON-Superflow, TEV cleavage, second TALON-Superflow, Superdex-200 SEC)
For the protein B2, the “stoichiometry N” value in series [3] worked out at 2.
